Measured values: patent US20250250357A1 (NANJING ZAIMING PHARMACEUTICAL, published 2025)
Each block holds one binder with its values, some of them ahead of it.

Assays:
[1] = target: T1, human MSLN-R1-his protein (human, UniProt Q13421 296-390); assay: ELISA, coated antigen; antibody 0.01 nM
T1 construct: also called human MSLN-R1 protein; hMSLN-R1-his; not shown: His tag

[2] = target: T2, human MSLN-FL-his protein (human, UniProt Q13421 296-580); assay: ELISA, coated antigen; antibody 0.001 nM
T2 construct: also called human MSLN full-length protein; hMSLN-FL-his; not shown: His tag

[3] = target: T1, human MSLN-R1-his protein; assay: ELISA, coated antigen; antibody 0.1 nM
Procedure: (§1) The plate was sealed with a plastic film and incubated at 4° C. overnight. The next day, the plate was washed twice with PBST, and a blocking buffer [PBS+2% (w/w) BSA] was added for blocking at room temperature for 2 h. The blocking buffer was discarded, and a chimeric antibody or negative control antibody serially diluted from 100 nM was added at 50 μL/well. After incubation at 37° C. for 2 h, the plate was washed 3 times with PBST. […] After incubation at 37° C. for 2 h, the plate was washed 5 times with PBST. A TMB substrate was added at 50 μL/well for incubation at room temperature for 5-10 min, and then a stop solution (1.0 N HCl) was added at 50 μL/well.

[4] = target: T3, human MSLN-R2-his protein (human, UniProt Q13421 391-486); assay: ELISA, coated antigen; antibody 0.001 nM
T3 construct: also called human MSLN-R2 protein; hMSLN-R2-his; not shown: His tag

[5] = target: T3, human MSLN-R2-his protein; assay: ELISA, coated antigen; antibody 10 nM
Procedure: as §1

[6] = target: T3, human MSLN-R2-his protein; assay: ELISA, coated antigen; no antibody (blank, column 'none')
Procedure: as §1

[7] = target: T2, human MSLN-FL-his protein; assay: ELISA, coated antigen; antibody 10 nM
Procedure: as §1

[8] = target: T1, human MSLN-R1-his protein; assay: ELISA, coated antigen; antibody 100 nM
Procedure: as §1

[9] = target: T2, human MSLN-FL-his protein; assay: ELISA, coated antigen; antibody 0.01 nM
Procedure: as §1

[10] = target: T3, human MSLN-R2-his protein; assay: ELISA, coated antigen; antibody 0.1 nM
Procedure: as §1

[11] = target: T1, human MSLN-R1-his protein; assay: ELISA, coated antigen; antibody 10 nM
Procedure: as §1

[12] = target: T2, human MSLN-FL-his protein; assay: ELISA, coated antigen; antibody 100 nM
Procedure: as §1

[13] = target: T3, human MSLN-R2-his protein; assay: ELISA, coated antigen; antibody 100 nM
Procedure: as §1

[14] = target: T1, human MSLN-R1-his protein; assay: ELISA, coated antigen; antibody 0.0001 nM
Procedure: as §1

[15] = target: T2, human MSLN-FL-his protein; assay: ELISA, coated antigen; antibody 0.1 nM
Procedure: as §1

[16] = target: T2, human MSLN-FL-his protein; assay: ELISA, coated antigen; antibody 0.0001 nM
Procedure: as §1

[17] = target: T1, human MSLN-R1-his protein; assay: ELISA, coated antigen; no antibody (blank, column 'none')
Procedure: as §1

[18] = target: T1, human MSLN-R1-his protein; assay: ELISA, coated antigen; antibody 1 nM
Procedure: as §1

[19] = target: T3, human MSLN-R2-his protein; assay: ELISA, coated antigen; antibody 1 nM
Procedure: as §1

[20] = target: T1, human MSLN-R1-his protein; assay: ELISA, coated antigen; antibody 0.001 nM
Procedure: as §1

[21] = target: T2, human MSLN-FL-his protein; assay: ELISA, coated antigen; antibody 1 nM
Procedure: as §1

[22] = target: T2, human MSLN-FL-his protein; assay: ELISA, coated antigen; no antibody (blank, column 'none')
Procedure: as §1

[23] = target: T3, human MSLN-R2-his protein; assay: ELISA, coated antigen; antibody 0.0001 nM
Procedure: as §1

[24] = target: T3, human MSLN-R2-his protein; assay: ELISA, coated antigen; antibody 0.01 nM
Procedure: as §1

[25] = target: T4, human MSLN-R3-3 polypeptide (human); assay: ELISA, coated antigen, antibody 100 nM
T4 construct: Part of region R3 of human MSLN; also called hMSLN-R3-3; human MSLN-R3-3 protein
Procedure: as §1

[26] = target: T4, human MSLN-R3-3 polypeptide; assay: ELISA, coated antigen, antibody 0.01 nM
Procedure: as §1

[27] = target: T4, human MSLN-R3-3 polypeptide; assay: ELISA, coated antigen, antibody 1 nM
Procedure: as §1

[28] = target: T4, human MSLN-R3-3 polypeptide; assay: ELISA, coated antigen, no antibody (blank)
[29] = target: T5, human MSLN-R3-his protein (human, UniProt Q13421 487-598); assay: ELISA, coated antigen, antibody 0.001 nM
T5 construct: Made in HEK293E cells, purified on nickel column; also called hMSLN-R3-his; human MSLN-R3 protein; not shown: His tag

[30] = target: T5, human MSLN-R3-his protein; assay: ELISA, coated antigen, antibody 0.01 nM
Procedure: as §1

[31] = target: T5, human MSLN-R3-his protein; assay: ELISA, coated antigen, antibody 0.0001 nM
[32] = target: T5, human MSLN-R3-his protein; assay: ELISA, coated antigen, antibody 1 nM
Procedure: as §1

[33] = target: T4, human MSLN-R3-3 polypeptide; assay: ELISA, coated antigen, antibody 0.1 nM
Procedure: as §1

[34] = target: T4, human MSLN-R3-3 polypeptide; assay: ELISA, coated antigen, antibody 0.001 nM
Procedure: as §1

[35] = target: T5, human MSLN-R3-his protein; assay: ELISA, coated antigen, antibody 0.1 nM
Procedure: as §1

[36] = target: T4, human MSLN-R3-3 polypeptide; assay: ELISA, coated antigen, antibody 0.0001 nM
Procedure: as §1

[37] = target: T5, human MSLN-R3-his protein; assay: ELISA, coated antigen, antibody 100 nM
Procedure: as §1

[38] = target: T4, human MSLN-R3-3 polypeptide; assay: ELISA, coated antigen, antibody 10 nM
Procedure: as §1

[39] = target: T5, human MSLN-R3-his protein; assay: ELISA, coated antigen, no antibody (blank)
Procedure: as §1

[40] = target: T5, human MSLN-R3-his protein; assay: ELISA, coated antigen, antibody 10 nM
Procedure: as §1

T1 sequence (Q13421 other isoform, or with tags, fused parts or gaps): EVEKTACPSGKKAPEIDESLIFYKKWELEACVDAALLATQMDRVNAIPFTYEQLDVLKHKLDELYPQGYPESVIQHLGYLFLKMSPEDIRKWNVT
T3 sequence (Q13421 other isoform, or with tags, fused parts or gaps): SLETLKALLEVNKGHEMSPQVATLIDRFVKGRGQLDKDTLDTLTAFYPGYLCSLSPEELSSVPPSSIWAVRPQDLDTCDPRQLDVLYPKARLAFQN
T5 sequence (Q13421 495-606): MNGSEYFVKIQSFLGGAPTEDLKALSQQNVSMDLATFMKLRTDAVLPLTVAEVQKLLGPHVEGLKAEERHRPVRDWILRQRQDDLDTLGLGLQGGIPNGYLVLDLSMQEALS
T2 sequence (Q13421 other isoform, or with tags, fused parts or gaps): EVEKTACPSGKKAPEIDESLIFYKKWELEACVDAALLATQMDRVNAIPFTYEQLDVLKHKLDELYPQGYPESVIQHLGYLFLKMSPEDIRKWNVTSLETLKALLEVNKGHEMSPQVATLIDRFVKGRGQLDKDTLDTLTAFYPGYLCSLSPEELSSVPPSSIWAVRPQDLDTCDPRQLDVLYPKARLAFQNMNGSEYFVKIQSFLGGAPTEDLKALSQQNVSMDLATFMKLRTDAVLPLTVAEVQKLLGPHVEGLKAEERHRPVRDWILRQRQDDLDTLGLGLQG

OD450 [1]: 0.05 OD450 | OD450 [2]: 0.13 OD450 | OD450 [3]: 0.05 OD450 | OD450 [4]: 0.05 OD450 | OD450 [5]: 0.06 OD450 | OD450 [6]: 0.07 OD450 | OD450 [7]: 1.84 OD450 | OD450 [8]: 0.07 OD450 | OD450 [9]: 0.57 OD450 | OD450 [10]: 0.05 OD450 | OD450 [11]: 0.06 OD450 | OD450 [12]: 1.9 OD450 | OD450 [13]: 0.07 OD450 | OD450 [14]: 0.05 OD450 | OD450 [15]: 1.57 OD450 | OD450 [16]: 0.06 OD450 | OD450 [17]: 0.07 OD450 | OD450 [18]: 0.05 OD450 | OD450 [19]: 0.05 OD450 | OD450 [20]: 0.05 OD450 | OD450 [21]: 1.79 OD450 | OD450 [22]: 0.06 OD450 | OD450 [23]: 0.06 OD450 | OD450 [24]: 0.05 OD450
B1: S009-F4-94.15 (antibody, human IgG1, kappa, V domains shown)
VH: QVQLHQPGAELVRPGSSVKLSCKASGYTFTSYWVHWVQQRPRQGLEWIGNIDPSDSEIHYNQKFKDKATLTVDKSSSTAYIHLSRLTSEDSAIYYCVRGGVPWFAYWGQGTLVTVSA
VL: QIVLTQSPAIMSASPGEKVTLTCSASSSVSSTYLYWFQQKPGSSPKVWIYSTSNLASGVPARFSGSGSGTSYSLTISSMEAEDAASYFCHQWISYPYTFGGGTKLEIKR
notes: Human-murine chimeric antibody, human IgG1/kappa constant regions

OD450 [25]: 0.07 | OD450 [26]: 0.05 | OD450 [27]: 0.04 | OD450 [28]: 0.04 | OD450 [29]: 0.05 | OD450 [30]: 0.04 | OD450 [31]: 0.04 | OD450 [32]: 0.04 | OD450 [33]: 0.05 | OD450 [34]: 0.04 | OD450 [35]: 0.04 | OD450 [36]: 0.05 | OD450 [37]: 0.08 | OD450 [38]: 0.04 | OD450 [39]: 0.05 | OD450 [40]: 0.05
B4: S009-F6-76.1 chimeric antibody (antibody, human IgG1, kappa, V domains shown)
VH: QVQLQQSGPELVKPGASVKISCKASGYTFTDYYINWVKQRPGQGLEWIGWIFPGRGSTFYYEKFKGKATLTVDKSSSTAYMLLSSLTSEDSAVYFCARRGDSAGYEDLDYWGQGTSVTVSS
VL: NIVMTQSPKFMSMSVGERVTLSCKASENVVTYVSWYQQKPKQSPKLLIYGASKRYTGVPDRFTGSGSATDFTLTISSVQAEDLGDYHCGQSYSYPYTFGGGTKLEIKR
notes: as for B1

OD450 [25]: 0.09 | OD450 [26]: 0.04 | OD450 [27]: 0.05 | OD450 [28]: 0.05 | OD450 [33]: 0.04 | OD450 [34]: 0.04 | OD450 [36]: 0.04 | OD450 [38]: 0.05
B5: S009-F6-62.5 chimeric antibody (antibody, human IgG1, kappa, V domains shown)
VH: QVQLQQPGTELVKPGASVKLSCRASGYTFTAYWMHWVKQRPGQGLEWIGNINPSNGGTDFNEKFKSKATLTVDKSSSTAYMQLSSLTSEDSAVYYCARGRGYFDVWGTGTTVTVSS
VL: DILLTQSPAILSVSPGERVSFSCRASKNIGTSIHWYQQRTNGSPRLLIKYASESISGIPSRFSGSGSGTDFTLNINSVESEDIADYYCQQSNSWPTLTFGAGTKLELKR
notes: as for B1

The remaining lines, values behind:

B2: S009-F4-94.15 chimeric antibody (antibody, human IgG1, kappa, V domains shown)
VH: QVQLHQPGAELVRPGSSVKLSCKASGYTFTSYWVHWVQQRPRQGLEWIGNIDPSDSEIHYNQKFKDKATLTVDKSSSTAYIHLSRLTSEDSAIYYCVRGGVPWFAYWGQGTLVTVSA
VL: QIVLTQSPAIMSASPGEKVTLTCSASSSVSSTYLYWFQQKPGSSPKVWIYSTSNLASGVPARFSGSGSGTSYSLTISSMEAEDAASYFCHQWISYPYTFGGGTKLEIKR
notes: Human-murine chimeric antibody: murine VH/VL on human IgG1 heavy and kappa light constant regions
OD450 [25]: 0.09 | OD450 [26]: 0.05 | OD450 [27]: 0.05 | OD450 [28]: 0.07 | OD450 [29]: 0.05 | OD450 [30]: 0.07 | OD450 [31]: 0.05 | OD450 [32]: 0.11 | OD450 [33]: 0.05 | OD450 [34]: 0.05 | OD450 [35]: 0.17 | OD450 [36]: 0.06 | OD450 [37]: 0.1 | OD450 [38]: 0.06 | OD450 [39]: 0.07 | OD450 [40]: 0.07

B3: S009-F4-127.10 chimeric antibody (antibody, human IgG1, kappa, V domains shown)
VH: EVQLQQSGPVLVKPGASVKMSCKASGYTFTDYYMNWVKQSHGKSPEWIGVINPYNDVISYNQKFKGKATLTVDKSSSTAYMELNSLTSEDSAVYYCANYGSSYYAMDYWGQGTSVTVSS
VL: DVVMTQTPLSLSVSLGDQASISCRSSQSLVHSNGNTYLQWSLQKPGQSPNLLIYKVSNRFSGVPDRFSGSGSGTDFTLKISRVEAEDLGVYFCSQTTHVPFTFGGGTKLEIRR
notes: as for B1
OD450 [25]: 0.14 | OD450 [26]: 0.05 | OD450 [27]: 0.05 | OD450 [28]: 0.07 | OD450 [29]: 0.09 | OD450 [30]: 0.41 | OD450 [31]: 0.06 | OD450 [32]: 1.82 | OD450 [33]: 0.05 | OD450 [34]: 0.05 | OD450 [35]: 1.31 | OD450 [36]: 0.06 | OD450 [37]: 2.1 | OD450 [38]: 0.06 | OD450 [39]: 0.07 | OD450 [40]: 1.93

B6: S009-F5-9.16 chimeric antibody (antibody, human IgG1, kappa, V domains shown)
VH: EVQLRQSGPVLVKPGASVKMSCKASGYTFTDYFMNWVKPSHGKSLEWIGVINPSNGVINYNQRFKGKATLTVDKSSSTAYMELNSLTSEDSAVYYCARSYDFAWFAYWGQGTLVTVSA
VL: DVLMTQTPLSLPVSLGDQASISCRSSQNIVHSNGNTYLEWYLQKPGQSPKLLIYTVSNRFSGVPDRFSGSGSGTDFTLKISRVEAEDLGVYYCFQGSHVPYTFGGGTKLEIKR
notes: as for B1
OD450 [25]: 1.99 | OD450 [26]: 0.04 | OD450 [27]: 0.13 | OD450 [28]: 0.05 | OD450 [29]: 0.26 | OD450 [30]: 1.11 | OD450 [31]: 0.12 | OD450 [32]: 2.32 | OD450 [33]: 0.05 | OD450 [34]: 0.04 | OD450 [35]: 1.82 | OD450 [36]: 0.05 | OD450 [37]: 2.28 | OD450 [38]: 0.67 | OD450 [39]: 0.05 | OD450 [40]: 2.36
